Earlier results in publication PMC7669891.

Assays:
[1] = target: p53 CTD (Homo sapiens) (UniProt P04637); test: FP
[2] = target: p53 CTD (Homo sapiens) (UniProt P04637); test: FP; remark: listed apart in the source
[3] = target: p53 CTD (Homo sapiens) (UniProt P04637); test: FP; remark: listed apart in the source
[4] = target: p53 CTD (Homo sapiens) (UniProt P04637); test: FP; remark: listed apart in the source
[5] = target: p53 CTD (Homo sapiens) (UniProt P04637); test: FP; remark: listed apart in the source
[6] = target: p53 CTD (Homo sapiens) (UniProt P04637); test: FP; remark: listed apart in the source
[7] = target: p53 CTD (Homo sapiens) (UniProt P04637); test: FP; remark: listed apart in the source
[8] = target: p53 CTD (Homo sapiens) (UniProt P04637); test: FP; remark: listed apart in the source
[9] = target: p53 CTD (Homo sapiens) (UniProt P04637); test: FP; remark: listed apart in the source
[10] = target: p53 CTD (Homo sapiens) (UniProt P04637); test: FP; remark: listed apart in the source
[11] = target: p53 CTD (Homo sapiens) (UniProt P04637); test: FP; remark: listed apart in the source
[12] = target: p53 CTD (Homo sapiens) (UniProt P04637); test: FP; remark: listed apart in the source
[13] = target: p53 CTD (Homo sapiens) (UniProt P04637); test: FP; remark: listed apart in the source
[14] = target: p53 CTD (Homo sapiens) (UniProt P04637); test: FP; remark: listed apart in the source
[15] = target: p53 CTD (Homo sapiens) (UniProt P04637); test: FP; remark: listed apart in the source
[16] = target: p53 CTD (Homo sapiens) (UniProt P04637); test: ITC
[17] = target: p53 CTD (Homo sapiens) (UniProt P04637); test: FP; remark: listed apart in the source
[18] = target: p53 CTD (Homo sapiens) (UniProt P04637); test: FP; remark: listed apart in the source
[19] = target: p53 CTD (Homo sapiens) (UniProt P04637); test: FP; remark: listed apart in the source
[20] = target: p53 CTD (Homo sapiens) (UniProt P04637); test: FP; remark: listed apart in the source
[21] = target: p53 CTD (Homo sapiens) (UniProt P04637); test: FP; remark: listed apart in the source
[22] = target: p53 CTD (Homo sapiens) (UniProt P04637); test: FP; remark: listed apart in the source
[23] = target: 14-3-3γ (Homo sapiens) (UniProt P61981); test: FP
Sequence of 14-3-3γ (Homo sapiens) (P61981 2-247): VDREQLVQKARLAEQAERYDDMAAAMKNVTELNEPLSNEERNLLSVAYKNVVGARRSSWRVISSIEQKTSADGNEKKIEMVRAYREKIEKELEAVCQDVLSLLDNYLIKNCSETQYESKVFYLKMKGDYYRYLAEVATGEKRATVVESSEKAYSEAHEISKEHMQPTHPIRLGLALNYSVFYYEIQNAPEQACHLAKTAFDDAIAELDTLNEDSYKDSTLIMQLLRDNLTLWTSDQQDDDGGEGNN

[24] = target: 14-3-3τ (Homo sapiens) (UniProt P27348); test: FP
Sequence of 14-3-3τ (Homo sapiens) (P27348 whole entry): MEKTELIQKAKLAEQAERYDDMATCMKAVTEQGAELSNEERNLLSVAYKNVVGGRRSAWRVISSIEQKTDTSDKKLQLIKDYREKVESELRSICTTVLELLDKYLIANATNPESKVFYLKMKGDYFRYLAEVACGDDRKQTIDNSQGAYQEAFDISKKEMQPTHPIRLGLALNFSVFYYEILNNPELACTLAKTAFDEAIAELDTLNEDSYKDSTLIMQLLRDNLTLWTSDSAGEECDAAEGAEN

[25] = target: 14-3-3ε (Homo sapiens) (UniProt P62258); test: FP
Sequence of 14-3-3ε (Homo sapiens) (P62258 whole entry): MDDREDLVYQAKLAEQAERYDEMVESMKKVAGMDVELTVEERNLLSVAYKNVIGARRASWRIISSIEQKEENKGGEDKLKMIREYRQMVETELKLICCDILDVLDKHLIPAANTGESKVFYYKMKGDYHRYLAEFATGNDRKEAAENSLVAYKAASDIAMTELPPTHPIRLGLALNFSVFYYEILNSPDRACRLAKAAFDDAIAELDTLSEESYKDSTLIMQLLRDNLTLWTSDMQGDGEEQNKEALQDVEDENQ

[26] = target: 14-3-3σ (Homo sapiens) (UniProt P31947); test: FP
Sequence of 14-3-3σ (Homo sapiens) (P31947 whole entry): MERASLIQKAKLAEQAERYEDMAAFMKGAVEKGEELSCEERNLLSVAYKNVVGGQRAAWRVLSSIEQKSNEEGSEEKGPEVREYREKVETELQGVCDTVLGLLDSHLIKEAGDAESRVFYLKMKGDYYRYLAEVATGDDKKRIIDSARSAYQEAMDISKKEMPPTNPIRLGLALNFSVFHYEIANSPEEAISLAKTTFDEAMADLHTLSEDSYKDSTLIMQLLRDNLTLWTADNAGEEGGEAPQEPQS

[27] = target: 14-3-3σ (Homo sapiens) (UniProt P31947); test: ITC

Sequence of 14-3-3ε (P62258 whole entry): as the sequence (P62258 whole entry) above
Sequence of 14-3-3γ (P61981 2-247): as the sequence (P61981 2-247) above
Sequence of p53 CTD (Homo sapiens) (P04637 363-393): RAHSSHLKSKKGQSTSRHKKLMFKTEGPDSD
Sequence of 14-3-3σ (P31947 whole entry): as the sequence (P31947 whole entry) above
Sequence of p53 CTD pT387 peptide (P04637 361-393): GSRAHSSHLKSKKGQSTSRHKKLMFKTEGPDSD
Sequence of p53 CTD pS378 peptide (P04637 361-393): as above
Sequence of p53 CTD pS366 peptide (P04637 361-393): as above
Sequence of p53 CTD pS366/pS378 peptide (P04637 361-393): as above
Sequence of p53 CTD pS366/pT387 peptide (P04637 361-393): as above
Sequence of p53 CTD pS378/pT387 peptide (P04637 361-393): as above
Sequence of 14-3-3τ (P27348 whole entry): as the sequence (P27348 whole entry) above

| Kd [4] [µM] | Kd [23] [µM] | Kd [24] [µM] | Kd [25] [µM] | Kd [26] [µM] | Substance | also measured |
| --- | --- | --- | --- | --- | --- | --- |
| 0.45 |  |  |  |  | 14-3-3γ (from UniProt P61981) | Kd [1]: 20 µM; Kd [2]: 14 µM; Kd [3]: 0.48 µM; Kd [5]: 0.14 µM; Kd [6]: 17 µM |
| 16 |  |  |  |  | 14-3-3ε (from UniProt P62258) | Kd [7]: 0.18 µM; Kd [8]: 11 µM; Kd [9]: 0.51 µM; Kd [10]: 18 µM; Kd [11]: 0.8 µM |
| 23 |  |  |  |  | 14-3-3σ (from UniProt P31947) | Kd [12]: 2.2 µM; Kd [13]: 22 µM; Kd [14]: 7.3 µM; Kd [15]: 24 µM; Kd [16]: 16.3 µM; Kd [17]: 3.5 µM |
| 6.2 |  |  |  |  | 14-3-3τ (from UniProt P27348) | Kd [18]: 3.3 µM; Kd [19]: 28 µM; Kd [20]: 2.1 µM; Kd [21]: 24 µM; Kd [22]: 27 µM |
|  | 17 | 28 | 16 | 24 | p53 CTD pS366 peptide (from UniProt P04637) |  |
|  | 0.48 | 2.1 | 0.51 | 2.2 | p53 CTD pS366/pS378 peptide (from UniProt P04637) |  |
|  | 0.14 | 6.2 | 0.18 | 3.5 | p53 CTD pS366/pT387 peptide (from UniProt P04637) |  |
|  | 20 | 27 | 18 | 22 | p53 CTD pS378 peptide (from UniProt P04637) |  |
|  | 0.45 | 3.3 | 0.8 | 7.3 | p53 CTD pS378/pT387 peptide (from UniProt P04637) |  |
|  | 14 | 24 | 11 | 23 | p53 CTD pT387 peptide (from UniProt P04637) |  |
|  |  |  |  |  | p53 pT387 peptide (from UniProt P04637) | Kd [27]: 16.3 µM |
